{"source": "paper PMC7725318", "about": "“Structures of three MORN repeat proteins and a re-evaluation of the proposed lipid-binding properties of MORN repeats” (PLoS ONE, 2020)", "molecules": {"B1": {"name": "TgMORN1(7–15) (domain or fragment, Toxoplasma gondii)", "chain": "EKYEGDWVNGKMHGHGKYIYSDGGVYEGDWIDGKMHGKGTYVFPNGNVYEGEWAHDMKDGYGVLTYQNGEKYEGYWKQDKVHGKGTLTYTRGDKYIGDWMDAKKDGEGELIYANGDRFKGQWADDRANGFGVFTYANGNRYEGEWTDDKRHGRGVFYCAEDGSAYEGEFVGGRKEGNGILRLATGHQLEGTWSGGQLVRVTSFVFAQDSPWLNVDL", "notes": "TgMORN1, Toxoplasma gondii (1092 bp open reading frame), MORN repeats 7–15; also called Toxoplasma gondii MORN1(7–15); source: E. coli Rosetta 2 (DE3)pLysS, purified; not shown: His10, N-terminal, cleaved"}}, "key": {"[1]": {"biological_target": "TbMORN1(7–15) (Trypanosoma brucei brucei strain Lister 427)", "assay": "SEC-MALS; Superdex 200 Increase 10/300 GL; 20 mM Tris-HCl pH 8.5, 200 mM NaCl, 2% (w/v) glycerol, 0.5 mM DTT; 100 μl of 2–4 mg/ml protein applied"}, "[2]": {"biological_target": "TbMORN1(2–15) (Trypanosoma brucei brucei strain Lister 427)", "assay": "SEC-MALS; Superdex 200 Increase 10/300 GL; 20 mM Tris-HCl pH 8.5, 200 mM NaCl, 2% (w/v) glycerol, 0.5 mM DTT; 100 μl of 2–4 mg/ml protein applied"}, "[3]": {"biological_target": "TbMORN1(10–15) (Trypanosoma brucei brucei strain Lister 427)", "assay": "SEC-MALS; Superdex 200 Increase 10/300 GL; 20 mM Tris-HCl pH 8.5, 200 mM NaCl, 2% (w/v) glycerol, 0.5 mM DTT; 100 μl of 2–4 mg/ml protein applied"}, "[4]": {"biological_target": "the molecule itself", "assay": "crystal structure; sitting-drop vapour diffusion at 22°C; TbMORN1(7–15) in forms P21 and C2 and TgMORN1(7–15) in P43212 as extended dimers; PfMORN1(7–15) in C2221 as a V-shaped dimer with Zn2+"}}}
{"molecule": "TbMORN1(7–15) (domain or fragment)", "values": [{"measurement": "stoichiometry N", "setting": "[1]", "value": 2}]}
{"molecule": "TbMORN1(2–15) (domain or fragment)", "values": [{"measurement": "stoichiometry N", "setting": "[2]", "value": 2}]}
{"molecule": "TbMORN1(10–15) (domain or fragment)", "values": [{"measurement": "stoichiometry N", "setting": "[3]", "value": 2}]}
{"molecule": "B1", "values": [{"measurement": "binding result", "setting": "[4]", "value": "binds"}]}
